{"source": "the supplement of paper PMC11865577", "data": [{"test_system": "G-clamp-N3 (biotin conjugate)", "assay": "pull-down binding Z-score (relative to library population); higher = stronger binding", "conditions": "RNA library: Library-1 (pre-miRNA loops + repeats)", "in_short": "(§1)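 Biotin-conjugated small molecule (100 pmol) on streptavidin beads was incubated with 1 μg of heat-folded Cy5- or Cy3-end-labelled RNA library in phosphate/NaCl/KCl buffer at 25 °C for 60 min. Following three washes, RNA was eluted with hot SDS and hybridised at 55.5 °C for 20 h to a DNA barcode microarray. The binding value is a Z-score computed from the library mean and standard deviation, after subtraction of beads without compound and averaging of barcoded replicate probes with the highest and lowest excluded.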", "values": [{"sequence": "GCUGGGGACUGGAGAA [hsa-mir-4489]", "pull-down binding Z-score": 2.08}, {"sequence": "GCUGGGGCGCGGGCUUUCGCUUUCAGUCGAGGGCUAGCGAGCGCAGC [hsa-mir-7846]", "pull-down binding Z-score": 1.79}, {"sequence": "GCUGGGGGUAAAUGACUUGCACAUGAACACAAC [hsa-mir-708]", "pull-down binding Z-score": -0.951}, {"sequence": "GCUGGUCGCGGGUUGUGGGGUUUAGGUCACCGGC [hsa-mir-5091]", "pull-down binding Z-score": 1.7}, {"sequence": "GCUGGUGACAUUGCUAAUUCAUUUCACACCAGC [hsa-mir-4293]", "pull-down binding Z-score": -0.642}, {"sequence": "GCUGUGUUGAAUGAUUGGUGAGUUUGUUUGCUCAUUGAUUGAAUCACUGC [hsa-mir-3678]", "pull-down binding Z-score": 0.133}, {"sequence": "GCUGUUGGUCGGGUUGUGACAUUGCCCGCUGUGGAGAUAACUGC [hsa-let-7i]", "pull-down binding Z-score": -0.338}, {"sequence": "GCUUAUACGUGCCCUUGCU [hsa-mir-8075]", "pull-down binding Z-score": -1.63}, {"sequence": "GCUUAUGGGGAUAUUGUGGUUGAUCUGUUCUAUCCAGAUGAC [hsa-mir-1261]", "pull-down binding Z-score": 0.854}, {"sequence": "GCUUAUGUCAUGACCUUGGGCUACUCAGGCUGUCUGCACAAUGAGC [hsa-mir-575]", "pull-down binding Z-score": -0.804}, {"sequence": "GCUUAUUGAUGUAGCCAACAAGC [hsa-mir-3148]", "pull-down binding Z-score": -0.529}, {"sequence": "GCUUCCGCUCUGCAGAGGC [hsa-mir-6822]", "pull-down binding Z-score": -0.531}, {"sequence": "GCUUCUCUUUCUCACCAGCAGC [hsa-mir-4467]", "pull-down binding Z-score": -1.87}, {"sequence": "GCUUCUGCGUUAUCUGGAAGG [hsa-mir-4706]", "pull-down binding Z-score": -0.078}]}, {"test_system": "TO-N3 (biotin conjugate)", "assay": "pull-down binding Z-score (relative to library population); higher = stronger binding", "conditions": "RNA library: Library-2", "in_short": "as §1", "values": [{"sequence": "GCCUCUUCUCCAUGAGAGGC [hsa-mir-885]", "pull-down binding Z-score": -1.07}, {"sequence": "GCCUGCCCUGAGUCCCCCAGCAGGU [hsa-mir-3907]", "pull-down binding Z-score": 1.46}, {"sequence": "GCCUGCGGGCAGGAAGCGGA [hsa-mir-3928]", "pull-down binding Z-score": 1.87}, {"sequence": "GCCUGUGUAGACGGGGACCUGCCCUGCAUGGGCACCCCCUCACUGGC [hsa-mir-6762]", "pull-down binding Z-score": 0.173}, {"sequence": "GCCUUGUGGCAUGGAGUUCAAGC [hsa-mir-107]", "pull-down binding Z-score": 0.851}, {"sequence": "GCCUUGUUGCAUAUGGAUCAAGC [hsa-mir-103a-1]", "pull-down binding Z-score": -0.178}, {"sequence": "GCCUUUCAACAUAAUGGC [hsa-mir-548w]", "pull-down binding Z-score": -0.352}, {"sequence": "GCGCGGGAAAGUUCGGGAACGCGCG [hsa-mir-4479]", "pull-down binding Z-score": 0.854}, {"sequence": "GCGGCCGCGCUGGCCGCU [hsa-mir-3665]", "pull-down binding Z-score": -0.0622}, {"sequence": "GCGGCUGUUAAUGAUUUUAACAGUUGC [hsa-mir-449c]", "pull-down binding Z-score": -1.14}, {"sequence": "GCGGGAGCCAGGCCGC [hsa-mir-3185]", "pull-down binding Z-score": -0.0208}, {"sequence": "GCGGGGAACGAGGCCGUCGGCCAUUUUGUG [hsa-mir-632]", "pull-down binding Z-score": 1.59}, {"sequence": "GCGGGGGUGGGGGCCUCGCCCUGCUUGGGCCCUCCCUGAC [hsa-mir-6821]", "pull-down binding Z-score": 2.47}, {"sequence": "GCGGGGUGUGGUGGGGCUGGGGCUGGCCCCCUCCUCACACCUC [hsa-mir-6800]", "pull-down binding Z-score": 4.29}, {"sequence": "GCGGUUUUUGCCAUUACUUUUCAUUUUUACCAUUAAAAGUAAUGGCAAAAAGCAU [hsa-mir-548q]", "pull-down binding Z-score": -1.09}, {"sequence": "GCGGUUUUUGCUAUUGGUUUUAAUGGC [hsa-mir-548au]", "pull-down binding Z-score": -0.205}, {"sequence": "GCGUCACGUGCACCCAAGUGACGC [hsa-mir-6786]", "pull-down binding Z-score": 0.688}, {"sequence": "GCGUCGCUUCUCCCUAAUGUUGCC [hsa-mir-6781]", "pull-down binding Z-score": -0.068}, {"sequence": "GCUAACUGUGACCUUAGC [hsa-mir-4729]", "pull-down binding Z-score": -0.187}, {"sequence": "GCUACUGUCUGCACCUGUCACUAGCAGU [hsa-mir-130a]", "pull-down binding Z-score": 1.12}, {"sequence": "GCUAGUGCUGGCUCAAUGCAAUGC [hsa-mir-502]", "pull-down binding Z-score": -0.0527}, {"sequence": "GCUCAAGCCACAGCAGGGUGUUUAGCGCUCUUCAGUGGCUCCAG [hsa-mir-1203]", "pull-down binding Z-score": 0.563}, {"sequence": "GCUCCCAACCAACCACUUCCACAUGUUUUGCUGGU [hsa-mir-4451]", "pull-down binding Z-score": 0.244}, {"sequence": "GCUCUAAUAAUUUAUUCUAAUAAUAAUUUAGAUC [hsa-mir-7976]", "pull-down binding Z-score": -1.19}, {"sequence": "GCUCUGGGGAUUUGGUCUCACAGC [hsa-mir-3940]", "pull-down binding Z-score": -0.497}, {"sequence": "GCUGAAACACAGUUGGUUUGUGUACACUGGC [hsa-mir-24-2]", "pull-down binding Z-score": -0.193}, {"sequence": "GCUGAACCCCUGCCCCUGGAGCCCCCAGCAGGGCCCUC [hsa-mir-7162]", "pull-down binding Z-score": 1.34}, {"sequence": "GCUGAGCCCUUUGAUAAGGGGGAGGUU [hsa-mir-8080]", "pull-down binding Z-score": 0.361}, {"sequence": "GCUGAGGUUGCGUUGACGCUCGC [hsa-mir-1292]", "pull-down binding Z-score": 0.384}, {"sequence": "GCUGCACUGUCUCCGUCUGCGG [hsa-mir-4519]", "pull-down binding Z-score": 0.595}, {"sequence": "GCUGCAGAUCUUUGUCUAAGCAGC [hsa-mir-4498]", "pull-down binding Z-score": -0.555}, {"sequence": "GCUGCAGGCAAAGCUGGGG [hsa-mir-711]", "pull-down binding Z-score": 0.901}, {"sequence": "GCUGCCAGGAAAUCCCUAUUUCAUAUAAGAGGGGGCUGGCUGGUUGC [hsa-mir-448]", "pull-down binding Z-score": 0.447}, {"sequence": "GCUGCCAUCUCCCACUGGCUGC [hsa-mir-4736]", "pull-down binding Z-score": -0.536}, {"sequence": "GCUGCCCCUUUGCUCUCUGGGGUAGC [hsa-mir-3614]", "pull-down binding Z-score": 0.258}, {"sequence": "GCUGCUGCCCCAGAGGCCCAGCAGGUGUCCAGAAC [hsa-mir-6750]", "pull-down binding Z-score": 1.18}, {"sequence": "GCUGCUGGUGCUCAUCUCAGC [hsa-mir-6877]", "pull-down binding Z-score": 0.825}, {"sequence": "GCUGCUUGCACUCGUUCAGC [hsa-mir-3661]", "pull-down binding Z-score": 0.1}, {"sequence": "GCUGGAGUAAGGGCACGCCCGGGGCUGC [hsa-mir-4758]", "pull-down binding Z-score": 1.51}, {"sequence": "GCUGGAUUUCCCAGCUUGACUCUAAC [hsa-mir-200a]", "pull-down binding Z-score": -0.337}, {"sequence": "GCUGGGCUGAGCUAACCAGGGCUGGGCUGAGC [hsa-mir-4537]", "pull-down binding Z-score": 0.532}, {"sequence": "GCUGGGGACUGGAGAA [hsa-mir-4489]", "pull-down binding Z-score": 2.4}, {"sequence": "GCUGGGGCGCGGGCUUUCGCUUUCAGUCGAGGGCUAGCGAGCGCAGC [hsa-mir-7846]", "pull-down binding Z-score": 1.12}, {"sequence": "GCUGGGGGUAAAUGACUUGCACAUGAACACAAC [hsa-mir-708]", "pull-down binding Z-score": 0.304}, {"sequence": "GCUGGUCGCGGGUUGUGGGGUUUAGGUCACCGGC [hsa-mir-5091]", "pull-down binding Z-score": 3.21}, {"sequence": "GCUGGUGACAUUGCUAAUUCAUUUCACACCAGC [hsa-mir-4293]", "pull-down binding Z-score": -1.31}, {"sequence": "GCUGUGUUGAAUGAUUGGUGAGUUUGUUUGCUCAUUGAUUGAAUCACUGC [hsa-mir-3678]", "pull-down binding Z-score": -0.79}, {"sequence": "GCUGUUGGUCGGGUUGUGACAUUGCCCGCUGUGGAGAUAACUGC [hsa-let-7i]", "pull-down binding Z-score": 0.207}, {"sequence": "GCUUAUACGUGCCCUUGCU [hsa-mir-8075]", "pull-down binding Z-score": 0.318}, {"sequence": "GCUUAUGGGGAUAUUGUGGUUGAUCUGUUCUAUCCAGAUGAC [hsa-mir-1261]", "pull-down binding Z-score": 0.676}, {"sequence": "GCUUAUGUCAUGACCUUGGGCUACUCAGGCUGUCUGCACAAUGAGC [hsa-mir-575]", "pull-down binding Z-score": -0.0339}, {"sequence": "GCUUAUUGAUGUAGCCAACAAGC [hsa-mir-3148]", "pull-down binding Z-score": -0.643}, {"sequence": "GCUUCCGCUCUGCAGAGGC [hsa-mir-6822]", "pull-down binding Z-score": 0.0168}, {"sequence": "GCUUCUCUUUCUCACCAGCAGC [hsa-mir-4467]", "pull-down binding Z-score": -0.461}, {"sequence": "GCUUCUGCGUUAUCUGGAAGG [hsa-mir-4706]", "pull-down binding Z-score": -0.25}]}]}
